Data taken from a protein production outcome set (Wang et al. 2014).

Experiment: label from the status in PepcDB records
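Also: failed if final PepcDB status was selected cloned or expressed and not failed if soluble or beyond.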

| Sequence | protein production |
| --- | --- |
| MENSRHNEFFLPLLLCIILPIIFMLTTNIKILRKTFSFILQNSFLQSFVTIFISIILEALPFIIIGVFLSSLIQVFISEETLSRIIPKNIVLGILSAATIGLIFPVCDCAIVPIVRRLLKKGLPLPIGITFMLSVPIINPVVLTSTYYAFLSNPHAPLIRAVAGWISAVLIGFIINKLDKSKTKQAKLHEILFNERVYMPKNNPIVTSNHNHEHHKCSCGHVHHEEEKFSALTLVHVLDHVSLELQDVGRFVIMGAFLSALMQTFIPRKYILSIGHGNISSIIVMMILAYVLCVCSETDAFIARTFVNQFTNGSIVAFLIFGPMIDIKNTLMLCETFNLKFVFKLVSIIIVVCFLIGLAFNFVKIPL | failed |
| MENVKVSVIVPVYNVETYLEEALMSLKNQTLKEIEFLIINDGSTDNSQKIIEEIAQDDPRFRVFNVKNGGIGKAFNLGVSEAKGEYIAEFESDDYVALHAYERLYNTAKSHHADVVRCNWVEFSSEEEVERDILWQYPDKYNQLIDLKTTDLIVQVYPWNAIYKKSMIEKENVTWDEEIKSYGDTGLFWKINSASQNVIFIKDCLYFYRQDNPNSTVNNVATKVPFLFQQFKLIRSNLIEQNKFERYKGYFYKQMFEKYFWAIEKLTHLRDESVYEVIQKVAVDFRQALETDQLNDIDFEYIKQFYQIANDPAAYYEDYLKNLYKVSVVMPIHNASKYLRQTLETVCEQSLREIEIILVENGSTDNTMDIINEFAVKDPRITGISIGKSNPGHARNVGISMARGRYLQFLDADDHFEANLLQDAYYRAYDSATDILLFGMKEKLPNGEVHVVHNPLLTNGGRMSGEEISLDEVTPYLYDKLFLLEYIKENNLVNLEQFVGEDAYFTYTALLGTEKIVALNKYLLTRIVRQDGLMSTYGMNYRDEFNLHDKMLEYLKQHAPNRIEAYRLKIINTLNWFIFDMNRVDQAFKERFYQELKEKYIQQLGLDLVKKEKYSNDPEQVERITRIQNILQYNLEIYQNIYKDFGMKKTFIIPNVHIQERGGKVIFGQEKTQGNGTAIEMFSIIIADNDTSNASGVIDFVYMGDNTKIIHDSLLVSLLIKKEGTTLKSIVLQAEWEKGYTLLQENMYYTFVDNVFTIWAGYTQKYAAFDYNVRILTSREGETHFSVVRQNQGYIQDTMTSIGNELTPINKIEGNEPTTIKKAVSKSLKKAKGLLK | failed |
| MENWFRADTWFGRLVDVGNTFIWTYVLIALLLGLGLYFTFVSRFVQFRLLGEMGRLLVEGMNRKAFKERKGTSSFQAFAISTAARVGTGNLAGVAVAISLGGPGAIFWMWIIALIGAATGFIESTLAQIYKVKDKDGFRGGPAYYMEKALNARWAGILFAILITLCFGLIFNAVQTHTIADAFVGAYDLNPFFIGLIIAFVMAFIVFGGIRRIAVIAEVIVPTFAIAYVLIALVIVLLNITQVPSVIGLIVGNAFGIQEVVGGGFGAAIMHGIRRGLFSNEAGMGSAPNAAATAHVSHPVKQGLVQSLSVLTDTLIICSATAFLILLTDVYTVGEMGGIQLTQEALTVHIGEWSMTFVTIAISFFAFSSLLGNYYYGEANIQFISQNRALLTVFRLAFLAMILIGATSELQIIWEMADLIMGAMAIVNLIAIALLAKIAVQALTDYQHQRKQGIDPVFYKNSLPDLKNIEAWDEKPVKEKN | failed |
| MEPMQVVKQRRDAALNALVSGVPFIRFLNITFDRRGDELTGVLNFDDKLIGNPFLPAIHGGVTAAFLEVTAVITLSWAHLFERIESGDLAPEDILTDENMRFPKTIDFTIDYLRSGLPRDAYARAYISRAGRRYASVRVEAWQDHHDKLYAQGTGHFLMPLEHHHHHH | failed |
| MEPNCVQFLENRTILVTGASGFLAKVLVERILRLQPNVKRLYLLVRASDKKSAEQRYDVALGINTFGAINVLNFAKKCVKPKLLLHVSTVYVCGERPGHIVEKHFAMGESLNGKNKVDINTERRLADQKSKQFKEQGCSEEETEQAMKDFGLKRARLYGWPNTYVFTKAMGEMLLGHYRETMPIVIIRPTIITSTFSDPFPGWIEGLKTVDSVIIFYGKGILKCFLVDQKTVCDIIPVDMVVNAMIAIAADHCHDSGSHTVYHVGSSNQNPVIYKQIYEMMSRYFMKSPLVGRNGMLIVPKVTRISTLARFRVYTNLRYKLPIQILGLLSVISLSQRDKFALHNRKFKMAMRLVKLYKPYVLFKGIFDDKNMETLRIKNEAKDMEKLFGTNPKCIDWEDYFMIRISLAS | failed |
| MEPNKDDNVSLAATAQISAPPVLQDASSLPGFSAIPPVVPPSFPPPMAPIPMMPHPPVARPPTFRPPVSQNGGVKTSDSDSESDDEHIEISEESKQVRERQEKALQDLLVKRRAAAMAVPTNDKAVRDRLRRLGEPITLFGEQEMERRARLTQLLTRYDINGQLDKLVKDHEEDVTPKEEVDDEVLEYPFFTEGPKELREARIEIAKFSVKRAAVRIQRAKRRRDDPDEDMDAETKWALKHAKHMALDCSNFGDDRPLTGCSFSRDGKILATCSLSGVTKLWEMPQVTNTIAVLKDHKERATDVVFSPVDDCLATASADRTAKLWKTDGTLLQTFEGHLDRLARVAFHPSGKYLGTTSYDKTWRLWDINTGAELLLQEGHSRSVYGIAFQQDGALAASCGLDSLARVWDLRTGRSILVFQGHIKPVFSVNFSPNGYHLASGGEDNQCRIWDLRMRKSLYIIPAHANLVSQVKYEPQEGYFLATASYDMKVNIWSGRDFSLVKSLAGHESKVASLDITADSSCIATVSHDRTIKLWTSSGNDDEDEEKETMDIDL | failed |
| MEPQKESNQNYLPYPPHPQQDHDEIDLRELFKALWEGKWIVIATTFVIAVSAVLYALSLPNIYKADALLAPAESSNGGGLSKMAGQLGGLAALAGVNLGASESSQTDLAVQVMRSRQFINTFINKHDLLVPLMAGKDWDLSNNKLILDEELYNPNTGEWLRDAKGLRGATPTAQEAFEVFSKEVLSINQDKESGLYTVSMKNYSPYIAQQWVNWLIEDINKAMRERTIAETSQNLAYLNTQLQKTAVTDMQSTFYKLIEEQTKSLMLAEVQEEFVFKVVDPAVVPELKDSPKRVLICVLGILLGVMLGVAIVLIRIVFRKEDTENLEPRT | failed |
| MEPSAKHLQLQTLLSERHAYLMEGNREAMHQLLSSDFSFIDGQGRQFDAETYLDHYVDPDQIQWSNQISESMVVEVFETTALVQEIVEDHFSYGRSMYIGRFRSVSLYHWANEGWKWHFHQLTPLDPS | not failed |
| MEQLQVGQVTLTWLNGGVTHLDGGAMFGVVPKPLWSKKYPPNDQNQIELRTDPILVEAGGKRLLIESGIGNGKLTDKQKRNFGVTEESSLDESLAALGLTRGDIDIVIMTHLHFDHACGLTVWEDGRLVPAFPRAAIITSDVEWEEMRAPNIRSRNTYWKENWEPIAEQVIPFTKETEVVSGIRLIHTGGHSAGHAIVLIESDGEMAIHLGDLLGTHAHQNVLWVMAYDDYPMDSIFAKQRWLPYGIERNAWFTFYHDAYYRAVKWREDGTIAEQVKRNRPTLLEHHHHHH | not failed |
| MEQMKITNLTGEQISFQLILHSGNARSCIIQSLRAYKEGKKDEADALIAKAEQDLSAAHDIHFQMIQKESGGEATAFSLLLMHAEDHLMSTLSMKELVKEMLDLFKTKNI | failed |
| MEQNITLKDRSKLVISGVEHIYSFNDKRVELKTSVGEMVIEGENLDMSKLSIDENIISIDGTINSMVYAKPKKPQESFLKKVFR | failed |
| MEQQKDYIELYENEELIEIREARMDDLDTIAKFNYNLAKETEGKELDMDVLTKGVKALLLDERKGKYHVYTVFDKVVAQIMYTYEWSDWRNGNFLWIQSVYVDKEYRRKGIFNYLFNYIKNICDKDENIVGMRLYVEKENINAKATYESLNMYECDYNMYEYEVIHS | failed |
| MEQRIWDLFGISADGNISRGNSGCVHTRNNKKEGDVLKVLTYVMLASVILFTTTYLILYLTYAKPVEIDVPFYGAPRGYTTITYEEVILPLTGKYKIENCYVQDSRSIYSNEGYLSERGVRIIVGNYTEDVYVRLIPQKMIPSEIIFLLMVGGVLGYVGDRMFKFK | failed |
| MERAAFGKLVQALRREHRDEKGRVWTQEVLAERTQLPKRTIERIENGSLAHLDADILLRLADALELTIGERREFFFAATGIIEQKSATYKRSPEESLQYLIDMIRNMNVPAFVTDQYVNIIAANMITIRFFNIPMELIETAPLLPHGYNLMRVVFGTEYDFRRVVGTMWDEVARHNMQLFRAISLRVRADGYFVELLDNLMQYREFKRFWERAHLETEDTSAENFWYQYTHPVYGLLSYVSSRSQIPTSMGLLSMHTYIPLSPATTDLFAKLSTVANQDVIRLAPWPRSNG | not failed |
| MERAFLRYVPILAFITIMTMYVEMVILPSLPEIENQFSITSSEASWVLSSETLAGMTLAPFLGKLADSYGRKKVLISILVVYILSVFLTAISPNYSILLISRSIQGIGLSINPIAYTILRERIPDRELPIAQGIIASTFAIGAAVALPIGSYISQYFSWEFAYETAIPLLILSTIIIYVILPSSESKGSDRKIDDVGVILLSLSFLILGIGLTEAPTWGWTSLQFFTSLLLSILLFYLFALHISKSRNPIIDPYDFKNPNVAVPLISSFITGFGLFLTFQSLVFIFELPSPIGYGMTILQTGETMAPIALIILIAGPFFGRLVTKIGYMKVILTSSSVSSFLLLFLAYIISLRISVLELMGFLSLILFFISGMNVTRVTLLIASSKRERMSTLTGTNTSMRLMGNTLGPIVVGSLEDTFKTPIFEGYLNNIPIFAFVPSRLAFEYAFLISMATTVLVTILATRIRERPSTTTYA | failed |
| MERDGCAGGGSRGGEGGRAPREGPAGNGRDRGRSHAAEAPGDPQAAASLLAPMDVGEEPLEKAARARTAKDPNTYKVLSLVLSVCVLTTILGCIFGLKPSCAKEVKSCKGRCFERTFGNCRCDAACVELGNCCLDYQETCIEPEHIWTCNKFRCGEKRLTRSLCACSDDCKDKGDCCINYSSVCQGEKSWVEEPCESINEPQCPAGFETPPTLLFSLDGFRAEYLHTWGGLLPVISKLKKCGTYTKNMRPVYPTKTFPNHYSIVTGLYPESHGIIDNKMYDPKMNASFSLKSKEKFNPEWYKGEPIWVTAKYQGLKSGTFFWPGSDVEINGIFPDIYKMYNGSVPFEERILAVLQWLQLPKDERPHFYTLYLEEPDSSGHSYGPVSSEVIKALQRVDGMVGMLMDGLKELNLHRCLNLILISDHGMEQGSCKKYIYLNKYLGDVKNIKVIYGPAARLRPSDVPDKYYSFNYEGIARNLSCREPNQHFKPYLKHFLPKRLHFAKSDRIEPLTFYLDPQWQLALNPSERKYCGSGFHGSDNVFSNMQALFVGYGPGFKHGIEADTFENIEVYNLMCDLLNLTPAPNNGTHGSLNHLLKNPVYTPKHPKEVHPLVQCPFTRNPRDNLGCSCNPSILPIEDFQTQFNLTVAEEKIIKHETLPYGRPRVLQKENTICLLSQHQFMSGYSQDILMPLWTSYTVDRNDSFSTEDFSNCLYQDFRIPLSPVHKCSFYKNNTKVSYGFLSPPQLNKNSSGIYSEALLTTNIVPMYQSFQVIWRYFHDTLLRKYAEERNGVNVVSGPVFDFDYDGRCDSLENLRQKRRVIRNQEILIPTHFFIVLTSCKDTSQTPLHCENLDTLAFILPHRTDNSESCVHGKHDSSWVEELLMLHRARITDVEHITGLSFYQQRKEPVSDILKLKTHLPTFSQED | failed |
| MERHEEIKKGAWIGILGNTVLAVLKILVGLLTGSYAILADGIDTSTDIFTSLVILLSSRISGKPPDETHPYGHERAETIASKIISFVMFYAGASLLVESVKRLVKQEFSLELTLTAFIVVGISVAGKTFLFLYKLSLGKRLKSSATISDALNMRNDIMISGTVLAGMVAMKTFGWWWLDSLLAIFVSIMILRTSFSVFYEAAYELMDGMKRTELDMYDDIFAVLERFPNVHNPHRVRIRRVGTKYFIEMDIEVDGKMSVKDAHELTVKIRKEMLKRRDDIEDVTIHVEPLGNVEEEGFGLKKGEKK | failed |
| MERHQHLLSEYQQILTLSEQMLVLATEGNWDALVDLEMTYLKAVESTANITISSCSSLMLQDLLREKLRAILDNEIEIKRLLQLRLDRLSDLVGQSTKQQAVNNTYGQFPDHALLLGETQ | not failed |
